Experimental data published in PMC5118791, “Beyond Antibodies: Development of a Novel Protein Scaffold Based on Human Chaperonin 10” (Scientific Reports, 2016).

B1: CE76-P1 (hCpn10 scaffold displaying the E-76 peptide with P1 linkers) (designed binder)
chain: AGQAFRKFLPLFDRVLVERSAAAPALCDDPRVDRWYCQFVEGAAPGKVLQATVVAVGSGSKGKGGEIQPVSVKVGDKVLLPEYGGTKVVLDDKDYFLFRDGDILGKYVD
B2: CE76-E5 (hCpn10 scaffold displaying the E-76 peptide with E5 linkers) (designed binder)
chain: AGQAFRKFLPLFDRVLVERSAAETVALCDDPRVDRWYCQFVEGEKSQGKVLQATVVAVGSGSKGKGGEIQPVSVKVGDKVLLPEYGGTKVVLDDKDYFLFRDGDILGKYVD

How the values were obtained:
[1] = biological target: recombinant Factor VIIa (rFVIIa); test: cell-based or functional assay
[2] = biological target: the molecule itself; test: SEC; analytical SE-HPLC, TSK G3000SWXL, 0.1 M phosphate pH 7.8, 0.2 M NaCl, 1 mg/mL, 0.8 mL/min, 25 °C; calibrated with BioRad standards
[3] = biological target: T1, recombinant Factor VIIa (rFVIIa); test: BLI; Octet Red, Ni-NTA biosensors, 37 °C, 1000 rpm; association 180 sec, dissociation 10 min; 1:1 model, global fit; the legend of Figure 4b says rFVIIa was immobilised; settings: both partners purified
T1 construct: rFVIIa (NovoSeven RT); no His tag on rFVIIa is stated anywhere; also called NovoSeven RT; source: bought: NovoSeven RT (named for the ELISA)
T1 sequence (P08709 whole entry): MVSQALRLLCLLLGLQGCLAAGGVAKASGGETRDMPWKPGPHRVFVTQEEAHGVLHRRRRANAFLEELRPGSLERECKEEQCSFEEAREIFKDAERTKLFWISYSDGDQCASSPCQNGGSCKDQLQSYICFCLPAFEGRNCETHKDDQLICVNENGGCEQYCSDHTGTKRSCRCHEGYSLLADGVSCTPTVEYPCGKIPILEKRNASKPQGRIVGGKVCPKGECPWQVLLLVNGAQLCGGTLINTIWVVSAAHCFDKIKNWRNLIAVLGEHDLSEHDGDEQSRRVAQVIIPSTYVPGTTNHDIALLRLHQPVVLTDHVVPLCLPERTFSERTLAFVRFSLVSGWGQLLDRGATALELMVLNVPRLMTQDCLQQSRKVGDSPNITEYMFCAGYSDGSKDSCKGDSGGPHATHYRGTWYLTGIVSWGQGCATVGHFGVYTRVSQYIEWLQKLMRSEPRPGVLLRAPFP

| Binder | inhibition of FX activation by TF-FVIIa (chromogenic substrate S-2765), IC50 [1] [nM] | inhibition of amidolytic activity of FVIIa (Chromozym t-PA) in the presence of TF, IC50 [1] [nM] | inhibition of amidolytic activity of FVIIa (Chromozym t-PA) without TF, IC50 [1] [nM] | prothrombin time (PT) in citrated human plasma, 0.001-100 μM, fold prolongation over normal clotting time [1] [fold] | stoichiometry N [2] | Kd [3] [nM] |
| --- | --- | --- | --- | --- | --- | --- |
| B1 | 1.5 | 6.8 | 8.4 | 7 | 7 | 3 |
| B2 |  |  |  |  | 7 | 5.5 |
